The values that follow come from the supplement of paper PMC12458215.

± gives the uncertainty stated by the source.

This series deals with HEK293T. The experiment in a line: plasma membrane surface immunostaining intensity (anti-HA, deep receptor scanning) (arbitrary fluorescence units); higher = higher plasma membrane expression.

Consider “MEARNQTAISKFLLLGLIEDPELQPVLFSLFLSMYLVTILGNLLILLAVISDSHLHTPMYFFLSNLSFLDICLSTTTIPKMLVNIQAQNRSITYSGCLTQICFVLFFAGLENCLLAAMAYDRYVAICHPLRYTVIMNPRLCGLLILLSLLTSVVNALLLSLMVLRLSFCTDLEIPLFFCELAQVIQLTCSDTLINNILIYFAACIFGGVPLSGIILSYTQITSCVLRMPSASGKHKAVSTCGSHLSIVLLFYGAGLGVYISSVVTDSPRKTAVASVMYSVFPQMVNPFIYSLRNKDMKGTLRKFIGRIPSLLWCAICFGFRFLE [OR7G2]”, for which the “plasma membrane surface immunostaining intensity” value (GPCR class: A (Olfactory)) was determined as 165 ± 53. On the same count and under the same terms, the result for “MNDDGKVNASSEGYFILVGFSNWPHLEVVIFVVVLIFYLMTLIGNLFIIILSYLDSHLHTPMYFFLSNLSFLDLCYTTSSIPQLLVNLWGPEKTISYAGCMIQLYFVLALGTTECVLLVVMSYDRYAAVCRPLHYTVLMHPRFCHLLAVASWVSGFTNSALHSSFTFWVPLCGHRQVDHFFCEVPALLRLSCVDTHVNELTLMITSSIFVLIPLILILTSYGAIVRAVLRMQSTTGLQKVFGTCGAHLMAVSLFFIPAMCIYLQPPSGNSQDQGKFIALFYTVVTPSLNPLIYTLRNKVVRGAVKRLMGWE [OR2J3]” reads 184 ± 45; that for “MQGENFTIWSIFFLEGFSQYPGLEVVLFVFSLVMYLTTLLGNSTLILITILDSRLKTPMYLFLGNLSFMDICYTSASVPTLLVNLLSSQKTIIFSGCAVQMYLSLAMGSTECVLLAVMAYDRYVAICNPLRYSIIMNRCVCARMATVSWVTGCLTALLETSFALQIPLCGNLIDHFTCEILAVLKLACTSSLLMNTIMLVVSILLLPIPMLLVCISYIFILSTILRITSAEGRNKAFSTCGAHLTVVILYYGAALSMYLKPSSSNAQKIDKIISLLYGVLTPMLNPIIYSLRNKEVKDAMKKLLGKITLHQTHEHL [OR2K2]”, 144 ± 20; that for “MEKWNHTSNDFILLGLLPPNQTGIFLLCLIILIFFLASVGNSAMIHLIHVDPRLHTPMYFLLSQLSLMDLMYISTTVPKMAYNFLSGQKGISFLGCGVQSFFFLTMACSEGLLLTSMAYDRYLAICHSLYYPIRMSKMMCVKMIGGSWTLGSINSLAHTVFALHIPYCRSRAIDHFFCDVPAMLLLACTDTWVYEYMVFVSTSLFLLFPFIGITSSCGRVLFAVYHMHSKEGRKKAFTTISTHLTVVIFYYAPFVYTYLRPRNLRSPAEDKILAVFYTILTPMLNPIIYSLRNKEVLGAMRRVFGIFSFLKE [OR2L13]”, 139 ± 4.1. As to “MPVGKLVFNQSEPTEFVFRAFTTATEFQVLLFLLFLLLYLMILCGNTAIIWVVCTHSTLRTPMYFFLSNLSFLELCYTTVVVPLMLSNILGAQKPISLAGCGAQMFFFVTLGSTDCFLLAIMAYDRYVAICHPLHYTLIMTRELCTQMLGGALGLALFPSLQLTALIFTLPFCGHHQEINHFLCDVPPVLRLACADIRVHQAVLYVVSILVLTIPFLLICVSYVFITCAILSIRSAEGRRRAFSTCSFHLTVVLLQYGCCSLVYLRPRSSTSEDEDSQIALVYTFVTPLLNPLLYSLRNKDVKGALRSAIIRKAASDAN [OR10Q1]”, the “plasma membrane surface immunostaining intensity” value (GPCR class: A (Olfactory)) turned out to be 243 ± 67. In the case of “MELAVGNLSEGNASWPEPPAPEPGPLFGIGVENFVTLVVFGLIFALGVLGNSLVITVLARSKPGKPRSTTNLFILNLSIADLAYLLFCIPFQATVYALPTWVLGAFICKFIHYFFTVSMLVSIFTLAAMSVDRYVAIVHSRRSSSLRVSRNALLGVGCIWALSIAMASPVAYHQGLFHPRASNQTFCWEQWPDPRHKKAYVVCTFVFGYLLPLLLICFCYAKVLNHLHKKLKNMSKKSEASKKKTAQTVLVVVVVFGISWLPHHIIHLWAEFGVFPLTPASFLFRITAHCLAYSNSSVNPIIYAFLSENFRKAYKQVFKCHIRKDSHLSDTKESKSRIDTPPSTNCTHV [GALR1]”, under “GPCR class: A”, the “plasma membrane surface immunostaining intensity” value stood at 6490 ± 69. With “MAERNYTVVTEFFLTAFTEHLQWRVPLFLIFLSFYLATMLGNTGMILLIRGDRRLHTPMYFFLSHLSLVDICYSSAIIPQMLAVLWEHGTTISQARCAAQFFLFTFFASIDCYLLAIMAYDRYTAVCQPLLYVTIITEKARWGLVTGAYVAGFFSAFVRTVTAFTLSFCGNNEINFIFCDLPPLLKLSCGDSYTQEVVIIVFALFVMPACILVILVSYLFIIVAILQIHSAGGRAKTFSTCASHLTAVALFFGTLIFMYLRDNTGQSSEGDRVVSVLYTVVTPMLNPLIYSLRNKEVKEATRKALSKSKPARRP [OR9Q2]”, the “plasma membrane surface immunostaining intensity” value (GPCR class: A (Olfactory)) was 188 ± 71.

As to “MDNVLPVDSDLSPNISTNTSEPNQFVQPAWQIVLWAAAYTVIVVTSVVGNVVVMWIILAHKRMRTVTNYFLVNLAFAEASMAAFNTVVNFTYAVHNEWYYGLFYCKFHNFFPIAAVFASIYSMTAVAFDRYMAIIHPLQPRLSATATKVVICVIWVLALLLAFPQGYYSTTETMPSRVVCMIEWPEHPNKIYEKVYHICVTVLIYFLPLLVIGYAYTVVGITLWASEIPGDSSDRYHEQVSAKRKVVKMMIVVVCTFAICWLPFHIFFLLPYINPDLYLKKFIQQVYLAIMWLAMSSTMYNPIIYCCLNDRFRLGFKHAFRCCPFISAGDYEGLEMKSTRYLQTQGSVYKVSRLETTISTVVGAHEEEPEDGPKATPSSLDLTSNCSSRSDSKTMTESFSFSSNVLS [TACR1]”, where the note is “GPCR class: A”, the “plasma membrane surface immunostaining intensity” value was determined as 6280 ± 110.

For “MRRNCTLVTEFILLGLTSRRELQILLFTLFLAIYMVTVAGNLGMIVLIQANAWLHMPMYFFLSHLSFVDLCFSSNVTPKMLEIFLSEKKSISYPACLVQCYLFIALVHVEIYILAVMAFDRYMAICNPLLYGSRMSKSVCSFLITVPYVYGALTGLMETMWTYNLAFCGPNEINHFYCADPPLIKLACSDTYNKELSMFIVAGWNLSFSLFIICISYLYIFPAILKIRSTEGRQKAFSTCGSHLTAVTIFYATLFFMYLRPPSKESVEQGKMVAVFYTTVIPMLNLIIYSLRNKNVKEALIKELSMKIYFS [OR5M8]”, for the setting “GPCR class: A (Olfactory)”, the “plasma membrane surface immunostaining intensity” value turned out to be 115 ± 18.

On to “MSGDNSSSLTPGFFILNGVPGLEATHIWISLPFCFMYIIAVVGNCGLICLISHEEALHRPMYYFLALLSFTDVTLCTTMVPNMLCIFWFNLKEIDFNACLAQMFFVHMLTGMESGVLMLMALDRYVAICYPLRYATILTNPVIAKAGLATFLRNVMLIIPFTLLTKRLPYCRGNFIPHTYCDHMSVAKVSCGNFKVNAIYGLMVALLIGVFDICCISVSYTMILQAVMSLSSADARHKAFSTCTSHMCSIVITYVAAFFTFFTHRFVGHNIPNHIHIIVANLYLLLPPTMNPIVYGVKTKQIQEGVIKFLLGDKVSFTYDK [OR52N2]”, for which the “plasma membrane surface immunostaining intensity” value (GPCR class: A (Olfactory)) turned out to be 157 ± 54. For the sequence “MLGPAYNHTMETPASFLLVGIPGLQSSHLWLAISLSAMYITALLGNTLIVTAIWMDSTRHEPMYCFLCVLAAVDIVMASSVVPKMVSIFCSGDSSISFSACFTQMFFVHLATAVETGLLLTMAFDRYVAICKPLHYKRILTPQVMLGMSMAVTIRAVTFMTPLSWMMNHLPFCGSNVVVHSYCKHIALARLACADPVPSSLYSLIGSSLMVGSDVAFIAASYILILRAVFDLSSKTAQLKALSTCGSHVGVMALYYLPGMASIYAAWLGQDIVPLHTQVLLADLYVIIPATLNPIIYGMRTKQLLEGIWSYLMHFLFDHSNLGS [OR52I1]”, the “plasma membrane surface immunostaining intensity” value (GPCR class: A (Olfactory)) amounted to 157 ± 16. As to “MDNLTKVTEFLLMEFSGIWELQVLHAGLFLLIYLAVLVGNLLIIAVITLDQHLHTPMYFFLKNLSVLDLCYISVTVPKSIRNSLTRRSSISYLGCVAQVYFFSAFASAELAFLTVMSYDRYVAICHPLQYRAVMTSGGCYQMAVTTWLSCFSYAAVHTGNMFREHVCRSSVIHQFFRDIPHVLALVSCEVFFVEFLTLALSSCLVLGCFILMMISYFQIFSTVLRIPSGQSRAKAFSTCSPQLIVIMLFLTTGLFAALGPIAKALSIQDLVIALTYTVLPPFLNPIIYSLRNKEIKTAMWRLFVKIYFLQK [OR14I1]”, the “plasma membrane surface immunostaining intensity” value (GPCR class: A (Olfactory)) was found to be 118 ± 14. For “MRMEDEDYNTSISYGDEYPDYLDSIVVLEDLSPLEARVTRIFLVVVYSIVCFLGILGNGLVIIIATFKMKKTVNMVWFLNLAVADFLFNVFLPIHITYAAMDYHWVFGTAMCKISNFLLIHNMFTSVFLLTIISSDRCISVLLPVWSQNHRSVRLAYMACMVIWVLAFFLSSPSLVFRDTANLHGKISCFNNFSLSTPGSSSWPTHSQMDPVGYSRHMVVTVTRFLCGFLVPVLIITACYLTIVCKLQRNRLAKTKKPFKIIVTIIITFFLCWCPYHTLNLLELHHTAMPGSVFSLGLPLATALAIANSCMNPILYVFMGQDFKKFKVALFSRLVNALSEDTGHSSYPSHRSFTKMSSMNERTSMNERETGML [CMKLR1]”, the “plasma membrane surface immunostaining intensity” value (GPCR class: A) was 747 ± 64.

As to “MANYTLAPEDEYDVLIEGELESDEAEQCDKYDAQALSAQLVPSLCSAVFVIGVLDNLLVVLILVKYKGLKRVENIYLLNLAVSNLCFLLTLPFWAHAGGDPMCKILIGLYFVGLYSETFFNCLLTVQRYLVFLHKGNFFSARRRVPCGIITSVLAWVTAILATLPEFVVYKPQMEDQKYKCAFSRTPFLPADETFWKHFLTLKMNISVLVLPLFIFTFLYVQMRKTLRFREQRYSLFKLVFAIMVVFLLMWAPYNIAFFLSTFKEHFSLSDCKSSYNLDKSVHITKLIATTHCCINPLLYAFLDGTFSKYLCRCFHLRSNTPLQPRGQSAQGTSREEPDHSTEV [CCRL2]”, the “plasma membrane surface immunostaining intensity” value (GPCR class: A) was found to be 569 ± 46. Take “MINSTSTQPPDESCSQNLLITQQIIPVLYCMVFIAGILLNGVSGWIFFYVPSSKSFIIYLKNIVIADFVMSLTFPFKILGDSGLGPWQLNVFVCRVSAVLFYVNMYVSIVFFGLISFDRYYKIVKPLWTSFIQSVSYSKLLSVIVWMLMLLLAVPNIILTNQSVREVTQIKCIELKSELGRKWHKASNYIFVAIFWIVFLLLIVFYTAITKKIFKSHLKSSRNSTSVKKKSSRNIFSIVFVFFVCFVPYHIARIPYTKSQTEAHYSCQSKEILRYMKEFTLLLSAANVCLDPIIYFFLCQPFREILCKKLHIPLKAQNDLDISRIKRGNTTLESTDTL [P2RY14]”: the “plasma membrane surface immunostaining intensity” value (GPCR class: A) came out at 5190 ± 71.

As to “MLGPAVLGLSLWALLHPGTGAPLCLSQQLRMKGDYVLGGLFPLGEAEEAGLRSRTRPSSPVCTRFSSNGLLWALAMKMAVEEINNKSDLLPGLRLGYDLFDTCSEPVVAMKPSLMFLAKAGSRDIAAYCNYTQYQPRVLAVIGPHSSELAMVTGKFFSFFLMPQVSYGASMELLSARETFPSFFRTVPSDRVQLTAAAELLQEFGWNWVAALGSDDEYGRQGLSIFSALAAARGICIAHEGLVPLPRADDSRLGKVQDVLHQVNQSSVQVVLLFASVHAAHALFNYSISSRLSPKVWVASEAWLTSDLVMGLPGMAQMGTVLGFLQRGAQLHEFPQYVKTHLALATDPAFCSALGEREQGLEEDVVGQRCPQCDCITLQNVSAGLNHHQTFSVYAAVYSVAQALHNTLQCNASGCPAQDPVKPWQLLENMYNLTFHVGGLPLRFDSSGNVDMEYDLKLWVWQGSVPRLHDVGRFNGSLRTERLKIRWHTSDNQKPVSRCSRQCQEGQVRRVKGFHSCCYDCVDCEAGSYRQNPDDIACTFCGQDEWSPERSTRCFRRRSRFLAWGEPAVLLLLLLLSLALGLVLAALGLFVHHRDSPLVQASGGPLACFGLVCLGLVCLSVLLFPGQPSPARCLAQQPLSHLPLTGCLSTLFLQAAEIFVESELPLSWADRLSGCLRGPWAWLVVLLAMLVEVALCTWYLVAFPPEVVTDWHMLPTEALVHCRTRSWVSFGLAHATNATLAFLCFLGTFLVRSQPGCYNRARGLTFAMLAYFITWVSFVPLLANVQVVLRPAVQMGALLLCVLGILAAFHLPRCYLLMRQPGLNTPEFFLGGGPGDAQGQNDGNTGNQGKHE [TAS1R3]”, the “plasma membrane surface immunostaining intensity” value (GPCR class: Taste) stood at 122 ± 9.1.
